Data reported in patent publication US20250376529A1 (Amgen, published 2025).

T1: huGIPR ECD (human, UniProt P48546 22-139, limits assumed)
T1 construct: Soluble ECD injected in the MASS-1 assay; also called human GIPR extracellular domain
T1 sequence: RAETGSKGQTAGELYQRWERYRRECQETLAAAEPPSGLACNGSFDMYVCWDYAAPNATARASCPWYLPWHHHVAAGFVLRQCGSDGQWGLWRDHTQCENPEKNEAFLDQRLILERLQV

T2: Rhesus GIPR (rhesus, UniProt F7E1R9 22-466)
T2 sequence: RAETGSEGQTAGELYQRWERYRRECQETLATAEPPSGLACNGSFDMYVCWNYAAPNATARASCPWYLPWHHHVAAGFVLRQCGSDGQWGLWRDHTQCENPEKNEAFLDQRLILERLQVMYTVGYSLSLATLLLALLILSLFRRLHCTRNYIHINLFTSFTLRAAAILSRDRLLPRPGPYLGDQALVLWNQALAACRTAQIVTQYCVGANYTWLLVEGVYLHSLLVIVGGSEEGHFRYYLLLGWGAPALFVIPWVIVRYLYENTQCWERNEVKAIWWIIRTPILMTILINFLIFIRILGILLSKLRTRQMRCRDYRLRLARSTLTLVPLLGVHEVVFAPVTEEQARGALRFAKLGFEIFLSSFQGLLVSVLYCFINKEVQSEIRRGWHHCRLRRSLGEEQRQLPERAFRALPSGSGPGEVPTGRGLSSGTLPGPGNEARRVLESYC

T3: human GIPR transiently expressed on 293T cells (human, UniProt P48546 22-466)
T3 sequence: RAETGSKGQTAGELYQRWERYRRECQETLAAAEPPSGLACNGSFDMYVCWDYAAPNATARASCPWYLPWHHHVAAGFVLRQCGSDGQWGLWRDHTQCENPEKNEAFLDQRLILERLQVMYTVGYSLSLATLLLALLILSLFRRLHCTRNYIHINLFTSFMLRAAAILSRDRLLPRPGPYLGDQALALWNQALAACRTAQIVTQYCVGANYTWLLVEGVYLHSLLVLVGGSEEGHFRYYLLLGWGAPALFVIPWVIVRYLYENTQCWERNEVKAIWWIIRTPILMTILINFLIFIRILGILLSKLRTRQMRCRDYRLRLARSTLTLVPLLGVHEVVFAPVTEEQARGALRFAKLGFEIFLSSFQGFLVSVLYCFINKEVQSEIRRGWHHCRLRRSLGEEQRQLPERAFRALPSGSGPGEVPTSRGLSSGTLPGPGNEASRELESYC


Assays:
huGIPR ECD [1] = target: T1, huGIPR ECD; experiment: SPR (MASS-1), captured mAb, 200 nM huGIPR ECD
Rhesus GIPR = target: T2, Rhesus GIPR; experiment: cell-based or functional assay
[2] = target: T3, human GIPR transiently expressed on …; experiment: cell-based or functional assay
huGIPR ECD [3] = target: T1, huGIPR ECD; experiment: SPR (MASS-1), captured mAb

| koff (huGIPR ECD [1]) [s⁻¹] | Rhesus GIPR CAMP Assay (Conc. mAb @ 60% Inhibition in nM) (Rhesus GIPR) [nM] | Hu GIPR CAMP Assay (Conc. mAb @ 60% Inhibition in nM) [2] [nM] | binding result (huGIPR ECD [3]) | Binder |
| --- | --- | --- | --- | --- |
| 0.001 | 0.52 | 1.04 | – | 2G10_LC1.006 (antibody, human IgG1, kappa, N297G, V domains shown, also called iPS:361192; iPS:361194) VH: not shown VL: EIVMTQSPATLSVSPGERATLSCRASQSVSSNLAWYQQKPGQAPRLLIYGAATRATGIPARVSGSGSGTEFTLTISSLQSEDFAVYYCQQYNNWPLTFGGGTKVEIKR |
| – | 23.3 | – | no binding (tested: 200 nM huGIPR ECD) | 6A5.004.009 (antibody, human IgG1, kappa, N297G, V domains shown, also called iPS:361120; iPS:361122) VH: QVQLVESGGGVVQPGRSLRLSCAASGFSFSSYGMHWVRQPPGKGLEWVAAIWYDANNKYYADSVKGRFTISRDSSKNTLYLQMNSLRAEDTAVYYCARDRTIFGVVLEYWGQGTLVTVSS VL: DIQMTQSPSSLSASVGDRVTITCQASQDITNYLNWYQQKPGKAPKLLIYDASNLEPGVPSRFSGSGSGTDFTLTISSLQPEDFATYYCQQYDDLFTFGPGTKVDIKR |
